Literature values, collected in US20260256431A1, “IMAGING OF MATRIX METALLOPROTEINASE INHIBITORS” (Micro Vide, LLC, priority 2022, published 2026).

Tested on: MMP-2, MMP-9, and MMP-14

B1: rTIMP-3: recombinant tissue inhibitor of metalloproteinases-3 (protein, UniProt P35625 24-211, looked up)
Metalloproteinase inhibitor 3: CTCSPSHPQDAFCNSDIVIRAKVVGKKLVKEGPFGTLVYTIKQMKMYRGFTKMPHVQYIHTEASESLCGLKLEVNKYQYLLTGRVYDGKMYTGLCNFVERWDQLTLSQRKGLNYRYHLGCNCKIKSCYYLPCFVTSKNECLWTDMLSNFGYPGYQSKHYACIRQKGGYCSWYRGWAPPDKSIINATDP
Intracoronary delivery in pigs at the time of reperfusion, earlier study
  MMP activity and LV remodeling and indices of heart failure progression: favorably reduced
Sustained release of rTIMP-3 from a hydrogel, observed previously
  tissue MMP-2, MMP-9, and MMP-14 activity: inhibition
